Patent US11180767B2, “Protease deficient filamentous fungal cells and methods of use thereof” (GLYKOS FINLAND OY, priority 2012, dated 2021)

What was measured:
[1] = system: MAB01 heavy chain; assay: Antibody degradation by Pichia-expressed T. reesei proteases (MAB01); format: biochemical
Procedure: The T. reesei aspartic proteases pep3 (tre121133) and pep7 (tre58669) expressed from Pichia were also tested in vitro, by measuring the degradation of the MAB01 antibody and IGF-1. Degradation of MAB01 and IGF-1 by pep3 and pep7 was analyzed by immunoblotting. The aspartic proteases were produced in Pichia supernatants. Pichia supernatants were diluted to 1× concentration, and then mixed with 50 mM sodium citrate buffer, pH 5.5. MAB01 was added to each reaction so that the final concentration would be 0.05 μg IGF-1 was added to each reaction so that the final concentration would be 0.30 μg μl. Ten microliters of each reaction mixture was then sampled and added to 3 μl of Laemmli sample buffer with β-mercaptoethanol. The samples were heated at 95° C. for 5 minutes before being loaded into a 4-15% PAGE gel (BioRad mini-protean TGX precast gel) along with an all blue precision plus prestained molecular weight marker (BioRad). The PAGE gel was run for 30 minutes at 200V. The proteins in the gel were then electrotransferred into a nitrocellulose filter at 100V for 1 hour. The protein containing nitrocellulose filter was then blocked with 5% milk powder in Tris buffered saline with 0.1% tween (TBST) for 1 hour shaking at room temperature. The blocked membranes were then probed with antibody. The MAB01 containing membranes were probed with an anti-IgG heavy chain antibody AP conjugate (Sigma #A3188) diluted 1:30,000 in TBST. The IGF-1 samples were analyzed using a primary anti-IGF-1 antibody (1:2000 in TBST) and anti-IgG AP conjugated secondary antibody (1:5000 in TBST). All antibody incubations were done for 1 hour at room temperature on a shaker. The membranes were then washed with 3 changes of TBST for 20 minutes each on the shaker. The membranes were developed with the BCIP/NBT alkaline phosphatase substrate (Promega #S3771) for up to 5 minutes.
Pichia supernatants containing Trichoderma reesei gap2 were also studied in vitro. The gap2 containing supernatant and MAB01 antibody were diluted into sodium citrate buffers adjusted to pH 4.0, 4.5, 5.0, and 5.5, and incubated for 20 hours at 37° C. Samples were taken at 0 minutes and after 20 hours. MAB01 heavy chain production was analyzed by immunoblotting using an anti-IgG heavy chain (Sigma #A3188) antibody AP conjugate.
(§1) The Trichoderma reesei subtilisin proteases slp5, slp6, and slp7 were overproduced in Pichia supernatants for investigation of their activity against the antibody rituximab and MAB01 heavy chains (FIG. 25). The rituximan mock supernatant was compared to supernatants containing slp5 and slp6 (FIG. 25 A). The MAB01 mock supernatant was compared to supernatants containing slp7 (FIG. 25B). Rituximab and MAB01 were added to the protease-containing Pichia supernatants and incubated overnight at 37° C. Samples were taken and analyzed by immunoblotting with an anti-heavy chain AP conjugated antibody.

[2] = system: rituximab heavy chain; assay: Antibody degradation by Pichia-expressed T. reesei proteases (rituximab); format: biochemical; details: overnight 37°C
Procedure: as §1

[3] = pH 5.5, 37°C, overnight/20 hours

B1: pep7: T. reesei aspartic protease tre58669 expressed from Pichia (protein, listed as Trichoderma reesei)
chain: MTLPVPLREHDLPFLKEKRKLPADDIPSGTYTLPIIHARRPKLASRAIEVQVENRSDVSYYAQLNIGTPPQTVYAQIDTGSFELWVNPNCSNVQSADQRFCRAIGFYDPSSSSTADVTSQSARLRYGIGSADVTYVHDTISLPGSGSGSKAMKAVQFGVADTSVDEFSGILGLGAGNGINTEYPNFVDELAAQGVTATKAFSLALGSKAEEEGVIIFGGVDTAKFHGELAHLPIVPADDSPDGVARYWVKMKSISLTPPPPSSSGSTDDNNNKPVAFPQTSMTVFLDSGSTLTLLPPALVRQIASALGSTQTDESGFFVVDCALASQDGTIDFEFDGVTIRVPYAEMIRQVSTLPPHCYLGMMGSTQFALLGDTFLRSAYAVFDLTSNVVHLAPYANCGTNVKSITSTSSLSNLVGTCNDPSKPSSSPSPSQTPSASPSSTATQKA
MAB01 degrading activity ([1]; pH 4.5, 37°C, overnight): minimal antibody degrading activity

B2: pep3: T. reesei aspartic protease tre121133 expressed from Pichia (protein, listed as Trichoderma reesei)
chain: MEAILQAQAKFRLDRGLQKITAVRNKNYKRHGPKSYVYLLNRFGFEPTKPGPYFQQHRIHQRGLAHPDFKAAVGGRVTRQKVLAKKVKEDGTVDAGGSKTGEVDAEDQQNDSEYLCEVTIGTPGQKLMLDFDTGSSDLWVFSTELSKHLQENHAIFDPKKSSTFKPLKDQTWQISYGDGSSASGTCGSDTVTLGGLSIKNQTIELASKLAPQFAQGTGDGLLGLAWPQINTVQTDGRPTPANTPVANMIQQDDIPSDAQLFTAAFYSERDENAESFYTFGYIDQDLVSASGQEIAWTDVDNSQGFWMFPSTKTTINGKDISQEGNTAIADTGTTLALVSDEVCEALYKAIPGAKYDDNQQGYVFPINTDASSLPELKVSVGNTQFVIQPEDLAFAPADDSNWYGGVQSRGSNPFDILGDVFLKSVYAIFDQGNQRFGAVPKIQAKQNLQPPQ
MAB01 degrading activity ([1]; pH 4.5, 37°C, overnight): higher | MAB01 degrading activity [1, 3]: low MAB01 degrading activity

B3: gap2: T. reesei glutamic protease tre106661 in Pichia supernatant (protein, listed as Trichoderma reesei)
chain: MDAIRARSAARRSNRFQAGSSKNVNGTADVESTNWAGAAITTSGVTEVSGTFTVPRPSVPAGGSSREEYCGAAWVGIDGYSDADLIQTGVLWCVEDGEYLYEAWYEYLPAALVEYSGISVTAGSVVTVTATKTGTNSGVTTLTSGGKTVSHTFSRQNSPLPGTSAEWIVEDFTSGSSLVPFADFGSVTFTGATAVVNGATVTAGGDSPVIIDLEDSRGDILTSTTVSGSTVTVEYE
proteolytic activity against heavy chain MAB01 ([1]; pH 4.0, 37°C, 20 hours): maximal proteolytic activity | MAB01 degrading activity [1, 3]: low

B4: slp6: T. reesei subtilisin protease overproduced in Pichia supernatant (protein, listed as Trichoderma reesei)
chain: MASLRRLALYLGALLPAVLAAPAVNYKLPEAVPNKFIVTLKDGASVDTDSHLTWVKDLHRRSLGKRSTAGVEKTYNIDSWNAYAGEFDEETVKQIKANPDVASVEPDYIMWLSDIVEDKRALTTQTGAPWGLGTVSHRTPGSTSYIYDTSAGSGTFAYVVDSGINIAHQQFGGRASLGYNAAGGDHVDTLGHGTHVSGTIGGSTYGVAKQASLISVKVFQGNSASTSVILDGYNWAVNDIVSRNRASKSAINMSLGGPASSTWATAINAAFNKGVLTIVAAGNGDALGNPQPVSSTSPANVPNAITVAALDINWRTASFTNYGAGVDVFAPGVNILSSWIGSNTATNTISGTSMATPHVVGLALYLQALEGLSTPTAVTNRIKALATTGRVTGSLNGSPNTLIFNGNSA
degradation of MAB01 heavy chain vs mock supernatant ([1]; Pichia supernatant, overnight 37°C): light degradation | degradation of rituximab heavy chain vs mock supernatant [2]: heavy degradation activity
